These results are taken from patent US20050059089A1 (priority 2003, published 2005).

The target of one assay is GPCR142 (Homo sapiens, UniProt Q8TDU9, L329S). Kind of assay: GTPγS binding assay, GPCR142 expressing cell membranes. It counts as biochemical. Further details: The complete coding region of human GPCR142 was PCR-amplified from human genomic DNA; expressed in transfected cells; CHO membranes (GTPγS); HEK293 co-transfected with Gα16 (Ca2+). On the procedure: The GPCR142 expression vector described above was transfected into CHO cells using Lipofectamine (Invitrogen) according to the manufacturer's instructions. Two days after transfection, the cells were harvested and the cell membranes were prepared by homogenizing the cells in cold 50 mM Tris-HCl, 5 mM EDTA, pH 7.5 followed by centrifugation at 4° C. 1000 g for 10 min. The supernatant was centrifuged at 4° C. 20,000 g for 30 min and the pellet was re-suspended in GTPγS binding buffer: 50 mM Tris-HCl, pH 7.4, 10 mM MgCl2, 1 mM EDTA, pH 8.0, and 100 mM NaCl using a polytron tissue homogenizer. Protease inhibitors were added to the buffer at concentrations of 1 mM PMSF, 10 μg/ml of pepstatin A, 10 μg/ml of leupeptin. Cell membranes and different concentrations of ligands were added to 96-well plates and incubated at room temperature for 20 min. ^35S-GTPγS (NEN) was then added to each well at a final concentration of […] in a final volume of 200 μL. The reactions were allowed to proceed at room temperature for 1 h, and then the mixtures were filtered though a 96-well GFC filter plate (Packard) and washed with cold washing buffer: 50 mM Tris-HCl, pH 7.4, 10 mM MgCl2. Fifty microliters of Microscint-40 (Packard) was added to each well and the plate was counted on a top counter (TopCount NTX, Packard).
(In general: GTPγS is a poorly hydrolysed GTP analogue; its binding reports G protein activation.)

In assay [1] the test system is HEK293 cells transfected by Gα16 alone. As to the kind of experiment: Ca2+ mobilization assay, HEK293 cells transfected by Gα16 alone. To be noted: cells expressing Gα16 alone (no receptor). It counts as cell-based, human. The procedure:
Human embryonic kidney (HEK) 293 cells were transfected with GPCR135,.GPCR142 or co-transfected with Gqi5 (Conklin et al. (1993), Nature 363, 274-280) or Gα16 (Amatruda et al. (1991), Proc. Natl. Acad. Sci. U.S.A. 88, 5587-5591) expressing plasmids using LipofectAmine. Two days after transfection, cells were detached with PBS plus 10 mM EDTA. The detached cells were washed with DMEM-F12 medium (without phenol red, Invitrogen) and seeded in black poly-D lysine coated 96-well plates (BD Biosciences, San Jose, Calif.) at a cell density of 50,000 cell/well.
(Calcium flux is commonly read through the fluorescence of an indicator in the cells.)

Like-named read-outs stand apart in the source and are kept apart here.

Chain of GPCR142 (Q8TDU9 whole entry L329S): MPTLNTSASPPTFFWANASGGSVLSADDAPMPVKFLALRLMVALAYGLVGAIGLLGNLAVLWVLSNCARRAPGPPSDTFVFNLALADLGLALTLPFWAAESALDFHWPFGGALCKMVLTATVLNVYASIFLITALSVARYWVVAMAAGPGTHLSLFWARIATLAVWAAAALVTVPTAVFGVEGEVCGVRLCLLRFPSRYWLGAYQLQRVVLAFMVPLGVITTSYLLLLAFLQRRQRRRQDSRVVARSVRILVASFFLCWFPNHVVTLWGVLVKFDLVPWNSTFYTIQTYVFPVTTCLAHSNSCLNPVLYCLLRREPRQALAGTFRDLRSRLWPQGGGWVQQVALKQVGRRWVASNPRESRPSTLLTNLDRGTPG

Consider “relaxin3: Human relaxin3 (SEQ ID NO: 6), produced recombinantly; mature peptide of A- and B-chain linked by disulfide bridges”, for which the “stimulation of 35S-GTPγS binding (agonist activity)” value is “stimulate” with GPCR142 and “stimulated GTPγS binding” with GPCR142 (listed as human recombinant relaxin3). For the same substance, the “stimulation of Ca2+ mobilization” value in assay [1] was “did not respond”.
